Usually Kd stands for the constant that tells how readily two partners part at equilibrium. Broadly, the koff is the first-order rate constant of dissociation. Higher therefore signals fast dissociation. In general, kon refers to a measure of how fast the partners come together.

The source of these data is article PMC4539346.

For the assay, the target named is human IgM (Calbiochem 401108) (human). Briefly: SPR; IgM amine-coupled to a GLC sensor chip (about 10,000 RU, pH 5), ProteOn XP36; DBL4ζ proteins flowed at 600-18.75 nM, 25 μl/min, 25 °C, 10 mM Tris pH 7.4, 140 mM NaCl, 2 mM CaCl2, 0.005% Tween-20; 1:1 Langmuir kinetic model. A general note: In SPR one partner is held on a chip, and binding of the other changes the refractive index at the surface.
In turn, “recombinant TM284var1 DBL4ζ E1663R (his-tagged, E. coli) (domain or fragment)” displayed a Kd of 115 nM, an off-rate constant (koff) of 0.0148 s⁻¹ and a kon of 129000 M⁻¹ s⁻¹.
“recombinant TM284var1 DBL4ζ R1764E (his-tagged, E. coli) (domain or fragment)” returned a Kd of 41.6 nM, a koff of 0.00189 s⁻¹ and an association rate constant (kon) of 45100 M⁻¹ s⁻¹.
“recombinant TM284var1 DBL4ζ E1663R, R1764E (his-tagged, E. coli) (domain or fragment)” gave a Kd of 33.2 nM, a koff of 0.00159 s⁻¹ and a kon of 49400 M⁻¹ s⁻¹.
The substance “recombinant TM284var1 DBL4ζ wild type (his-tagged, E. coli) (domain or fragment)” came in with a Kd of 66.2 nM, a koff of 0.0118 s⁻¹ and an association rate constant (kon) of 179000 M⁻¹ s⁻¹.
With “recombinant TM284var1 DBL4ζ E1663R, E1665R, R1764E, E1779K (his-tagged, E. coli) (domain or fragment)”, the Kd came out at 41.2 nM, the koff came to 0.00254 s⁻¹ and the on-rate (kon) was found to be 61600 M⁻¹ s⁻¹.
